From article PMC12700558, “Aggregation shifts amyloid-β peptides from synaptogenic to synaptotoxic” (The Journal of Clinical Investigation, 2025)
“And” between values parts separate entries of the source, which are not always exact repeats. Equal entries are not always repeated. “Also recorded” adds a separate entry of the source.

Tests used:
human neurons [1] = experiment: GCaMP6m live imaging of Ca2+ signals (network activity); type: cell-based; set-up: Ca2+ imaging: Frequency / Ca2+ imaging: Amplitude: unit not given here; details: for Ca2+ imaging: Amplitude / Ca2+ imaging: Frequency / Ca2+ imaging: Synchronicity: single biological replicates (batches), n=3, listed as Ab42 arctic mutation
Method: To evaluate the effects of Aβ peptide treatments on neuronal network activity, live calcium imaging was performed using human neurons expressing the genetically encoded calcium indicator GCaMP. At DIV6, human neurons were infected with a lentiviral vector, prepared as described previously at Virus generation, carrying a plasmid encoding GCaMP6m under the control of the human Synapsin-1 promoter, ensuring neuron-specific expression. […] At DIV45, when the neurons had reached full maturation, synaptic activity was recorded. For potentiating synaptic transmission of human neurons, the cells were imaged with ambient 4 mM CaCl2 and 8 mM KCl equilibrated in a HEPES-based buffer (140 mM NaCl, 10 mM HEPES, 20 mM glucose, 1 mM MgCl2). […] Neuronal activity was captured in 2-minute videos at a frame rate of 10 frames/second, allowing for the detection of spontaneous calcium transients indicative of neuronal firing. Following acquisition, the videos were analyzed using MATLAB software (MathWorks). Regions of interest (ROIs) corresponding to 10–20 neurons were selected, and fluorescence intensity changes over time were extracted for each ROI. Analyses focused on quantifying the frequency, amplitude, and synchronicity of calcium signal peaks across the neuronal network. Signal peaks were identified using a peak detection algorithm, and synchronicity was assessed through cross-correlation analyses between neuronal pairs or by calculating network synchrony measures ([26]).

[2] = system: human neurons cocultured with mouse glia; details: chronic exposure DIV6-DIV45, neurotoxic doses
Excerpt: The Incucyte Cytotox Green assay, finally, monitors membrane integrity using a DNA dye that gains access to nuclei only when the plasma membrane is compromised (Supplemental Figure 1, F and G).
To obtain a live cell read out of neuronal death, we monitored loss of plasma-membrane integrity with Incucyte Cytotox Green reagent (Sartorius), a cell-impermeant DNA dye that fluoresces upon binding to nuclear DNA once the membrane is breached ([48]). A 250× stock supplied by the manufacturer was thawed on ice and diluted into prewarmed culture medium to a final working concentration of 250 nM immediately before use. For each assay plate, half the medium was removed and replaced with dye-containing medium so that the final dye concentration and vehicle composition were identical across all conditions. For validation, DIV30 cocultures were challenged for 4 hours with 200 μM H2O2; fluorescence images were acquired immediately thereafter. […] Dye was present for 2 hours before imaging to allow equilibrium without inducing additional stress. Ten nonoverlapping fields per well were captured with the 20× objective using green fluorescence channels. Exposure settings were kept constant within an experiment. Images were processed with ImageJ. A top-hat background subtraction was applied to the green channel, and a fluorescence threshold was kept constant across batches. […]

[3] = system: human neurons cocultured with mouse glia; experiment: Quantification of 6E10-positive Aβ aggregates in human neuron cultures; type: cell-based; details: for Density of 6E10-positive structures (number of structures per area of field of view) / Size of 6E10-positive structures (area fraction of the field of view occupied by aggregates): human neurons/mouse glia, DIV25
Method: (§1) Mature human iN cells were washed 3 times with PBS (Gibco) and fixed with 4% PFA (Electron Microscopy Science) and 4% sucrose (Sigma-Aldrich) in PBS for 10 minutes at room temperature. Cells were then washed three times with PBS, followed by permeabilization and blocking with 0.25% Triton-X-100 (Sigma-Aldrich), 2.5% bovine serum albumin (BSA) (GeminiBio) and 2,5% NGS (Sigma-Aldrich) for one hour at room temperature. Incubation with primary antibodies was performed overnight at 4°C in the corresponding blocking buffer ([41]). For endosome analyses, fixing solution contained only 4% PFA and the permeabilization was performed separately before the blocking step, using 0.1% Triton-X-100. Primary Antibodies used include rabbit monoclonal anti-Synapsin-1 (Yenzym antibodies, clone YZ6078, 1:1000 dilution), mouse monoclonal anti-PSD95 (Thermo Fisher Scientific, 7E3-1B8, 1:250 dilution), chicken polyclonal anti-MAP2 (EnCor, CPCA-MAP2, 1:1000 dilution), mouse monoclonal 6E10 (BioLegend, SIG-39320, 1:1000), rabbit monoclonal anti-Synaptophysin (homemade, P580 ([26])), and rabbit monoclonal anti-EEA1(Cell Signaling, C45B10, 1:1000 dilution). Cells were washed 3 times with PBS and incubated for 1 hour at room temperature with Alexa conjugated secondary antibodies: goat anti-chicken Alexa 647, goat anti-rabbit Alexa 546, goat anti-rabbit Alexa 488, and goat anti-mouse Alexa 488, all 1:500. Coverslips were washed once with PBS and once with water to remove salts before mounting, then were mounted using Fluoromount (with DAPI) (Thermo Fisher Scientific, 00-4959-52) on glass slides. All images were taken with the Nikon A1RSi confocal microscope (Nikon Instruments Inc.) for analysis of synaptic puncta using Nikon Analysis Software.
To quantify the density and size of 6E10-immunopositive aggregates, we acquired high-resolution confocal images at 60x magnification using a Nikon Eclipse Ti microscope (Nikon, Japan). All fluorescence parameters, including laser power and detector settings, were held constant throughout image acquisition to ensure comparability across samples. We then processed and analyzed the resulting images with Nikon Analysis Software, employing standardized thresholds for object detection. For analyses conducted in human neurons, the density of 6E10-positive aggregates was determined by calculating the number of discrete objects per unit area of the imaged field. In contrast, for analyses in primary neurons, we recorded the total number of discrete objects within each field. In both cases, we measured particle size as the fraction of the total field occupied by 6E10-positive signals, using a binary region of interest encompassing the entire field of view. This approach allowed for consistent, unbiased quantification of both the distribution and relative size of immunofluorescent aggregates under different experimental conditions.

human neurons [4] = experiment: Quantification of synaptic puncta (Synapsin-1 and PSD95), confocal; type: cell-based; details: chronic treatment, DIV45
Method: as §1, with “Coverslips were washed once with PBS and once with water to remove salts before mounting, then were mounted using Fluoromount (with DAPI) (Thermo Fisher Scientific, 00-4959-52) on glass slides. All images were taken with the Nikon A1RSi confocal microscope (Nikon Instruments Inc.) for analysis of synaptic puncta using Nikon Analysis Software.” left out

[5] = Native PAGE and immunoblotting of the aggregation state of Aβ peptides; type: physicochemical; details: stock solutions incubated at 37°C for 60 or 90 minutes, native PAGE, immunoblot 4G8 / Abcam 126892
Method: To assess the aggregation state of Aβ peptides in stock solutions, we performed native polyacrylamide gel electrophoresis (PAGE) followed by immunoblotting. Stock solutions of Aβ peptides were incubated at 37°C for 1.5 and/or 1 hours to promote aggregate formation. After incubation, samples were diluted 1:2 with native PAGE sample buffer to maintain nondenaturing conditions. The samples were loaded onto 4%–15% gradient polyacrylamide Criterion gels (Bio-Rad), which allow for the separation of proteins across a wide range of molecular weights under native conditions. Electrophoresis was conducted using Tris-Glycine buffer at 4°C for 3 hours to preserve the native structure of the peptide aggregates during separation. A constant voltage appropriate for native PAGE was applied throughout the run ([49]). Following electrophoresis, proteins were transferred onto Nitrocellulose (0.45 μm) membranes using a semidry transfer apparatus optimized for proteins of mixed molecular weights. The transfer was performed according to the manufacturer’s instructions, ensuring efficient transfer of both low and high molecular weight species. Membranes were blocked with 5% BSA (GeminiBio) in Tris-buffered saline with 0.1% Tween-20 (TBST) at room temperature for 1 hour to prevent nonspecific antibody binding. […] Blots were imaged using the Odyssey Infrared Imager CLX and analyzed using Image Study 5.2.5. […]

[6] = concentrations that proved synaptotoxic, DIV45
[7] = 0.1uM chronic, biological replicate 1
[8] = 0.1uM chronic, biological replicate 2
[9] = 0.1uM chronic, biological replicate 3
[10] = 0.2uM chronic, biological replicate 1
[11] = 0.2uM chronic, biological replicate 2
[12] = 0.2uM chronic, biological replicate 3

With “-.DAEFRHDSGYEVHHQKLVFFAGDVGSNKGAIIGLMVGGVVI.A [Aβ42^arctic]” the “Neuronal network activity (in words)” value (human neurons [1]; any concentration, chronic treatment, DIV45) was “did not enhance neuronal network activity at any concentration”, the “Spike frequency and amplitude (in words)” value (human neurons [1]; [6]) was “pronounced fall” and the “Synchrony (in words)” value (human neurons [1]; [6]) was “near-complete breakdown”. For the same substance, the “Ca2+ imaging: Amplitude” value (human neurons [1]; peptide 0.1 uM) was 0.4784 and 0.3202 and 0.4832, the “Ca2+ imaging: Frequency” value (human neurons [1]; peptide 0.1 uM) was 10.7529 and 5.405 and 6.996 and the “Ca2+ imaging: Synchronicity” value (human neurons [1]; peptide 0.1 uM) was 0.2834 and 0.2877 and 0.3503. The “Ca2+ imaging: Amplitude” value (human neurons [1]; peptide 0.2 uM) was 0.3279 and 0.286 and 0.3267, the “Ca2+ imaging: Frequency” value (human neurons [1]; peptide 0.2 uM) was 0.6879 and 0.8917 and 1.347 and the “Ca2+ imaging: Synchronicity” value (human neurons [1]; peptide 0.2 uM) was 0.2149 and 0.1382 and 0.2492. For the same substance, the “Incucyte Cytotox Green assay, labeled nuclei (in words)” value [2] was “modest but consistent rise in labeled nuclei”, the “Density of 6E10-positive structures (number of structures per area of field of view)” value [3, 7] was 0.009289 and the “Size of 6E10-positive structures (area fraction of the field of view occupied by aggregates)” value [3, 7] was 0.02043. For the same substance, the “Density of 6E10-positive structures (number of structures per area of field of view)” value [3, 8] was 0.01336, the “Size of 6E10-positive structures (area fraction of the field of view occupied by aggregates)” value [3, 8] was 0.034 and the “Density of 6E10-positive structures (number of structures per area of field of view)” value [3, 9] was 0.01613. For the same substance, the “Size of 6E10-positive structures (area fraction of the field of view occupied by aggregates)” value [3, 9] was 0.04071, the “Density of 6E10-positive structures (number of structures per area of field of view)” value [3, 10] was 0.03615 and the “Size of 6E10-positive structures (area fraction of the field of view occupied by aggregates)” value [3, 10] was 0.05614. The “Density of 6E10-positive structures (number of structures per area of field of view)” value [3, 11] was 0.04641, the “Size of 6E10-positive structures (area fraction of the field of view occupied by aggregates)” value [3, 11] was 0.04714 and the “Density of 6E10-positive structures (number of structures per area of field of view)” value [3, 12] was 0.06233. For the same substance, the “Size of 6E10-positive structures (area fraction of the field of view occupied by aggregates)” value [3, 12] was 0.04014, the “6E10-positive Aβ aggregates in treated human neurons (in words)” value ([3]; chronic exposure, immunofluorescence with 6E10 antibody) was “significant 6E10-positive Aβ aggregates” and the Loss of synapses (human neurons [4]; high concentrations) was “greater than 55%”. For the same substance, the “Effect on synapse numbers (in words)” value (human neurons [4]; lower concentrations) was “did not increase synapse numbers” and the “Aggregation state in native gel analyses (in words)” value [5] was “completely aggregated even at lower concentrations; also recorded: quantitatively aggregated”.
